Experimental data as given in the nanobody polyreactivity screen of Harvey et al. (2022).

Assay: yeast display, Sf9 membrane polyspecificity reagent, FACS + sequencing; frameworks hold sequencing errors
Outline: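 Galactose-induced (36–48 hours) yeast carrying a synthetic nanobody display library were exposed to 10% biotinylated, detergent-solubilized Sf9 membrane reagent at 4 °C for 1 hour. FACS followed streptavidin microbead enrichment, using low and high (top ~1%) gates for expression (anti-HA) and reagent binding (streptavidin). Colony PCR, MiSeq 2 × 250 sequencing and CDR-length filtering followed. Labels for polyreactivity reflect the gate of origin.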

In the case of “QVQLVESGGGLVQAGGSLRLSCAASGSTFSYYGMGWYRQAPGKERELVAAIDYSGDSTYYADSVKGRFTISRDNAKNTVYLQMNSMKPEDTALYYCNAAHSVRHYAIHLGYWGQGTQVTVSS”, the “polyreactivity (PSR sort gate)” value is reported as “low polyreactivity”.
In the case of “QVQLVESGGGLVQAGGSLRLSCAASGSTFATYVMGWYRQAPGKETELVAAISSSGSTNYADSVKGRFTISRDNAKNTVYLQMNSLKPEYTAVYYCAARYYRLTDRPYNPIVSYGYWGQGTQVTVSS”, the “polyreactivity (PSR sort gate)” value is reported as “high polyreactivity”.
In the case of “QVQLVESGGGLVQAGGSLRLSCAASGLIFVSYAMGWYRQAPGKERELVAAISSGGSTYYADSVKGRFTISRDNAKNTVYLQINSLKPEDTAVYYCAAEYVFRGYVGYDYWGQGTQVTVSS”, the “polyreactivity (PSR sort gate)” value is reported as “low polyreactivity”.
With “QVQLVESGGGLVQAGGSLRLSCAASGFIFYKYVMAWYRQAPGKERELVAAINWSGGSTYYADSVKGRFTISRDNAKNTVYLQMNSLKPEDTAVYYCAALSQYRYDYWGQGTQVTVSS” the “polyreactivity (PSR sort gate)” value was “high polyreactivity”.
With “QVQLVESGGGLVQAGGSLRLSCAASGSTFVIYAMGWYRQAPGKERELVAAIRLGGGSTYYADSVKGRFTISRDNANNTVYLQMNSLKPEDTAVYYCAAEVDQWYYRGYDYWGQGTQVTVSS” the “polyreactivity (PSR sort gate)” value was “high polyreactivity”.
For “QVHLVESGGGLVQAGGSLRLSCAASGSIFSWYAMGWYRQAPGKEWELVAAITWSGGSTYYADSVKGRFTISRDTAKNTVYLQMNSLKPEDTAVYYCAASYDIYGNYRRYDYWGQGTQVTVSS”, the “polyreactivity (PSR sort gate)” value was “high polyreactivity”.
With “QVQLVESGGGLVQAGGSLRLSCAASGSIFRYNAMGWDRQAPGKERELVAGITWGGSTYYADSVKGRFTISRDNAKNTVYLQMNSLKPEDTAVYYCAAGRYGDYGYWGQGTQVTVSS” the “polyreactivity (PSR sort gate)” value was “high polyreactivity”.
For “QVQLVESGGGLVQAGGSLRLSCAASGRIFYRYARGWYRQAPGKEREFVAAISGTGGSTYYADSVKGRFTISRDNAKNTVYLQMNSLKPEDTAVYYCAAFSYYSSGYDYWGQGTQVTVSS”, the “polyreactivity (PSR sort gate)” value was “high polyreactivity”.
In the case of “QVQLVESGGGLVQAGGSLRLSCAASGLIFASYAMGWYRQAPGKERELVAAITSSGGSTYYADSVKGRFTISRDNAKNTVYLQMNSLKPEDTAVYYCAADIYTYNLFYHWSWLDYNYWGQGTQVTVSS”, the “polyreactivity (PSR sort gate)” value is reported as “high polyreactivity”.
With “QVQLVESGGGLVQAGGSLRLSCAAAGSTFRYYAMGWYRHAPGKDRELVAAITSGGNTYNADSVKGRFTISRDNAKNTVYLLMNSLKPEDTAVYYCAAVGYLKYDNWGQGTQVTVSS” the “polyreactivity (PSR sort gate)” value was “low polyreactivity”.
With “QFQLVESGGGLVQAGGILRLSCAASGFTFRVNAMGWYRQAPGKERELVASITVSDGRTYYADSVKGRFTISRDNAKNTVYLQMNSLKPEDCAVYYCAADYKGAFTTDWSSEYEYWGQGTQVTVSS” the “polyreactivity (PSR sort gate)” value was “low polyreactivity”.
With “QVQLVESGGGLVQAGGSLRLSCAASGIIFEGYAMGWYRQAPGKERELVATITSGGITYYADSVKGRFTISRDNAKNTVYLQMNSLKPEDTAVYYCAADNEDIGSEDSDYGYDYWGQGTQVTVSS” the “polyreactivity (PSR sort gate)” value was “low polyreactivity”.
In the case of “QVQLVESGGGLVQAGGSLRLSCAASGSIFSRNTLGWYRQAPGKERELVAAITRGGSTDYADSVKGRFTISRDNAKNTVYLQMNSLKPEDTAVYYCAKKTPGWGKFDYWGQGTQVTVSS”, the “polyreactivity (PSR sort gate)” value is reported as “low polyreactivity”.
In the case of “QVQRVESGGGLVQAGGSLRLSCAASGITFYPYTMGWYRQAPGKQRELVAAISSSGGSTNYADSVKGRFTISRDNAKNSDYLQMISLKPDDSAVYYCAKRYAGNASSDGDSWGQGTQVTVSS”, the “polyreactivity (PSR sort gate)” value is reported as “low polyreactivity”.
With “QVQLVESGGGLVQAGGSLRLSCAASGLTSLGNAMGWYRQAPGKERELVAAITRTGTSTYYADSVKGRFTISRDNAKNTVYLQMNSLKPEDTAVYYCAALDRYSTEYKYQLYKQEYDYWGQGTQVTVSS” the “polyreactivity (PSR sort gate)” value was “low polyreactivity”.
With “QVQLVESGGGLVQAGGSLRLSCAASGLIFRVYAMGRYRQAPGKERELVATITRGGRTYYADSVKGRFTISRDNAKNTVYLQMNSLKPEDTAVYYCAVLSVRRSYNYWGQGTQVTVSS” the “polyreactivity (PSR sort gate)” value was “high polyreactivity”.
For “QVQLVESGGGLVQAGGSLRLSCAASGFTFYYNAMGWYRQAPGKERELVAAISTGGSTYYADSVKGRFTISRDNAKNTVYLQMNSLKPEDTAVYYCAAKTYGRRWSYYYWGQGTQVTVSS”, the “polyreactivity (PSR sort gate)” value was “high polyreactivity”.
For “QVQLVESGGGLVQAGGSLRLSCAASGSTFVYYAMGWYRQAPGKERELVARISSGGSTYYADSVKGRFTISRDNAKNTVYLQMNSLKPEDTAVYYCAVLLWVSPLKREFYWGQGTQVTVSS”, the “polyreactivity (PSR sort gate)” value was “high polyreactivity”.
With “QVQLVESGGGLVQAGGSLRLSCAASGRISQGYAMGWYRQAPGKERELVAVISRSGGSTYYADSVKGRFTISRDNAKNTVYLQMNSVKPEDTAVYYCASRYYWRGYYWGQGTQVTVSS” the “polyreactivity (PSR sort gate)” value was “high polyreactivity”.
In the case of “QVQLVESGGGLVQAGGSLRLSSAASGRTLSKNAMGWYRQAPGKERELVATISSVGRTNYADSVKGRFTISRDNAKNTVYLQMNSLKPEDTAVYYCAATVRGKRSTYDYWGQGTQVTVSS”, the “polyreactivity (PSR sort gate)” value is reported as “high polyreactivity”.
In the case of “QVQLVESGGALVQAGGSLRLSCAASGRIFIVYAMGWSRQAPGKERDLVAAITSSGGGTYYADSVKGRFTISRDNAKNTVYLQMNSLKQEDSAVFYCATRYPYRPGYEYWGQGTQVTVSS”, the “polyreactivity (PSR sort gate)” value is reported as “low polyreactivity”.
With “QVQLVESGGGLVQAGGSLRLSCAASGSIFSYYAMGWYRQAPGKERELVAAISKRGASTYYADSVKGRFTISRDNAKNTVYLQMNSLKPEDTAVYYCAAYRQGSAYDYWGQGTQVTVSS” the “polyreactivity (PSR sort gate)” value was “high polyreactivity”.
With “QVQLVESGGGLVQAGGSLRLSCAASGSIFQLNAMGWYRQAPGKERELVAAITWSGDSTYYADSVKGRFTISRDNAKNTVSLQMNSRKPEDTAVYYCAADVLTTPPPREFEYWGQGTQVTVSS” the “polyreactivity (PSR sort gate)” value was “high polyreactivity”.
With “QVQIVESGGGLVQAGGSLRLSCAASGFTIPRYAMGWYRQAPGKERELVAAISRAGRTYYADSVKGRFTISRDNAKNTVYLLMTSLKPEDTAVYYCNSQYLKPGDYWGHGTQVTVSS” the “polyreactivity (PSR sort gate)” value was “high polyreactivity”.
With “QVQLVESGGGLVQAGGSLRLSCAASGRIFAYYAMGWYRQAPGKDRELVATIRSGGDTNYADSVKGRFTISRDNAKNTVDIQMNSLKTEDTAVYYCNALYYWWYPHEYNYWGQGTQVTVSS” the “polyreactivity (PSR sort gate)” value was “low polyreactivity”.
For “QVQLVESGGGLVQAGGSLRLSCAASGFIFDYYAMGWYRQAPGKERELVAAITSRGGSTYYADSVKGRFTISRDNAKNTVYLQMNSLKPEDTAVYYCNKDPHYYATGRFYYWGQGTQVTVSS”, the “polyreactivity (PSR sort gate)” value was “high polyreactivity”.
In the case of “QVQLVESGGGLVQAGGSLRLSCAASGRTFWYYTMGWYRQAPGKERELVAAISSGGTTNYADSVKGRFTISRDNAKNTVYLQMNSLKPEDTAVYYCAARYRSYAVRLRGYDYWGQGTQVTVSS”, the “polyreactivity (PSR sort gate)” value is reported as “high polyreactivity”.
For “QVQLVESGGGLVQAGGSLRLSCAASGRIFVTNAMGWYRQAPGKERELVASISSGGRTHYADSVKGRFTISRDNAKNTVYLQMNSLKPEDTAVYYCAKPPLYYYPALRGEEFYYWGQGTQVTVSS”, the “polyreactivity (PSR sort gate)” value was “low polyreactivity”.
In the case of “QVQLVESGGGLVQAGGSLRLSCAASGRTFDYYAMGWYRQAPGKERELVAAISSSGGSTYYADSVKARFTISRDNAKNTVYLQMNSLKPEDTEVYYCNAYAYRFNHIHHIYTTVGEYWGQGTQVTVSS”, the “polyreactivity (PSR sort gate)” value is reported as “high polyreactivity”.
For “QVQLLESGGGLVQAGGSLRLTCAASGSTFKRYAMGWYRQAPGKERELVAAITTSGGSTYYADSVKGRFTISRDNAKNTVYLQMNSLEPEDTAVYYCAAVWPGRRTTNYYFPGHGYQYGYWGQGTQVTVSS”, the “polyreactivity (PSR sort gate)” value was “high polyreactivity”.
For “QVQLVESGGGLVQAGGSLRLSCAASGFTFWAYAMGWYRPAPGKERELVARISGSGGRTYYADSVKGRFTISRDNAKNTVYLQMNSLKREDTAVYYCNAPYFNWYGYWGQGTQVTVSS”, the “polyreactivity (PSR sort gate)” value was “high polyreactivity”.
In the case of “QVQHEESGGGLVQAGGSLRLSCAASGFTFGTNAMGWSRQAPGKERELVAAISTRGGSTYYADSVKGRFTISRDNAKNTVYLQMNSLKPEDTAVYYCAAYWGRTRYYGYDYYYWGQGTQVTVSS”, the “polyreactivity (PSR sort gate)” value is reported as “high polyreactivity”.
For “QVQLVESGGGLVQAGGSLRLSCAASGSIFYGYAMGWYRQAPGKERELVAAITTSGGSTYYADSVKGRFTISRDNAKYTVYLQMNSLKPEDTAVYYCAAVTYWPGGYYWGQGTQVTVSS”, the “polyreactivity (PSR sort gate)” value was “high polyreactivity”.
In the case of “QVQLVESGGGLVQAGGSLRLSCAASGFTFPGYAMGWYRQAPGKERKLVAAITGSGGRTYYADSVKGRFTISRDNAKNTVYLQMNSLKPEDTAVYYCLARSYYNWYDYWGQGTQVTVSS”, the “polyreactivity (PSR sort gate)” value is reported as “high polyreactivity”.
In the case of “QVQLVESGGGLVQAGGSLRLSCAASGRIFYGNAMGWYRQAPGKERELVAAISSGGGSTYYADSVKGRFTISRDNAKNTVYLQMNSLKPEDTAVYYCAADPVHRFPGTGGYWGQGTQVTVSS”, the “polyreactivity (PSR sort gate)” value is reported as “low polyreactivity”.
With “QVQLVESGGGLDQAGGSLRLICAASGRTFYYAMGWYRQAPGKERYADSVKGRFTISRDNAKNTVYLQMNSLKPEDTAVYYCAAKVPEPPSLDESDYWGQGTQVTVSS” the “polyreactivity (PSR sort gate)” value was “low polyreactivity”.
For “QVQLVESGGGLVQAGGSLRLSCAASGFTIVYYSMGWYRQAPGKERELVATISSGGGTNYADSVKGRFTISRDNAKNTVYLQMNSLTPEDTAVYYCAAEYYTGYFKYDYWGQGTQVTVSS”, the “polyreactivity (PSR sort gate)” value was “high polyreactivity”.
In the case of “QVQLVESGGGLVQAGGSLRLSCAAAGSIFVWYVMGWYRQAHGKEMELVAAITWSAARTYYADSVKGRFTISRDNAKNTVYLLMNSLKPEDTAVYYCAADHVSYQPSSRIFDYWGQGTQVTVSS”, the “polyreactivity (PSR sort gate)” value is reported as “low polyreactivity”.
For “QVQRVESGGGLVQAGGSLRLSFAAAGGILYPYAMGWYRQAPGKERELVAAITSSGSTYYADSVKGRFTISRDNAKITVYLQMNSLNPEDHAVYYCAITLPTRNKLRSGREYDYWGQGTQVTVSS”, the “polyreactivity (PSR sort gate)” value was “low polyreactivity”.
With “QVQLVESGGGLVQAGGSLRVSCAASGSIFSSYAMGWYRQAPGKDRELVAVINSGGSTNYADSVKGRFTISRDNAKNTVYFQMNTLKPEDTAVYYCNAYGGTFHNSAAEFDYWGQGTQVSVSS” the “polyreactivity (PSR sort gate)” value was “low polyreactivity”.
In the case of “QVQLVEAGGGLVQAGGSLRLSCAASGSTFPYNARGWYSQAPGKDRELVAAMTSAGGTNYADSVKGRFTISRDNATNTVYLQMNSLKPEDTAVYYCAADGSGYYDWYYYWGQGTQVTVSS”, the “polyreactivity (PSR sort gate)” value is reported as “low polyreactivity”.
With “QVQLVESGGGVDQAGGSLRLSGAASGSTFHSYTMGWYRQAPGKERELVAAITRSGGSTYYADSGKGRFTISRETAKNTVYLQMNSQKPEDTAVYYCAVPYCRNSRLVDLAYHFYYWGQGTQVTVSS” the “polyreactivity (PSR sort gate)” value was “high polyreactivity”.
With “QVQLVESGGGLVQAGGSLRLSCAASGFIFDYYAMGWYRQAPGKERELVASISGDDGRTYYADSVKGRFTISRDNAKNTVYLQMNSLKPEDTAVYYCNAEWGVLNYDYWGQGTQVTVSS” the “polyreactivity (PSR sort gate)” value was “low polyreactivity”.
